The values below come from article PMC12830901.

What all share (test): split reporter (BiFC, NanoBiT); receptor-SmBiT and LgBiT-mini-G, LgBiT-mini-GΔα5 or LgBiT-β-arrestin transiently co-transfected in HEK293T; live cells 48 h after transfection; NanoBiT PPI system (Promega), luminescence normalised by the expression of both constructs; in the mutant and ΔHA panels the mini-GΔα5 signal was subtracted and results given as a percentage of the reference construct

The target in assay [1] is ADGRL4-CTF1 S414A (human) (UniProt Q9HBW9).
Assay [2] deals with ADGRL4-CTF1 H408A (human) (UniProt Q9HBW9).
For assay [3], the target named is ADGRL4-CTF1 I411A (human) (UniProt Q9HBW9).
The target of assay [4] is ADGRL4-CTF1 F409A (human) (UniProt Q9HBW9).
The target in assay [5] is ADGRL4-CTF1 L412A (human) (UniProt Q9HBW9).

For the substance LgBiT-mini-Gq (mini-Gs/q version 70), the reduction of Gq activity, percent of wild-type CTF1 in assay [1], in assay [2], in assay [3] and in assay [5] was above 50% in each case. Moreover, the Gq activity, percent of wild-type CTF1 (% of wild-type CTF1) in assay [4] is 12.
